The values below come from article doi:10.1101/2021.05.25.445618.

As usually defined, the stoichiometry N is a count of units in the complex or per binding partner.

Test [1] deals with C-terminally myc-tagged ClpP2 (ClpP2-2×myc) (L. monocytogenes EGD-e). Briefly: affinity purification with mass spectrometry.
In test [2] the target is L. monocytogenes ClpP1 of the co-expressed ClpP1/2 preparation (L. monocytogenes). Briefly: SEC. Background: In gel filtration, larger molecules generally elute earlier.
Test [3] concerns the target L. monocytogenes ClpP1, separately overexpressed and purified (ClpP1_(7)) (L. monocytogenes). The test is described as follows: SEC + other: intact protein mass spectrometry.
The target of test [4] is L. monocytogenes ClpP2, separately overexpressed and purified (ClpP2_(14)) (L. monocytogenes). The test is described as follows: SEC + other: intact protein mass spectrometry.
In test [5] the target is L. monocytogenes ClpP1, separately overexpressed and purified (ClpP1_(7)) (L. monocytogenes). Briefly: SEC.
In test [6] the target is L. monocytogenes ClpP2 of the co-expressed ClpP1/2 preparation (L. monocytogenes). The test is described as follows: SEC.

The substance “ClpP1, endogenous in L. monocytogenes (enzyme)” registered a fold enrichment at 42 °C over 20 °C in test [1] of 6 fold. On to “L. monocytogenes ClpP1 of the co-expressed ClpP1/2 preparation (enzyme)”, for which the stoichiometry N in test [2] stood at 7. Take “L. monocytogenes ClpP1, separately overexpressed and purified (ClpP1_(7)) (enzyme)”: the stoichiometry N in test [3] and in test [5] was 7 throughout. Also, the percent ClpP1 in the tetradecamer peak in test [4] was 40 to 44%. Regarding “L. monocytogenes ClpP2 of the co-expressed ClpP1/2 preparation (enzyme)”, the stoichiometry N in test [6] amounted to 14. As for “L. monocytogenes ClpP2, separately overexpressed and purified (ClpP2_(14)) (enzyme)”, the stoichiometry N in test [4] worked out at 14.
